Source: US20220356210A1, “A SERIES OF INJECTABLE HYDROGELS SELF-ASSEMBLED FROM SHORT PEPTIDES FOR VARIOUS BIOMEDICAL APPLICATIONS” (Agency for Science, Technology and Research, priority 2019, published 2022)
Non-standard residues stand in square brackets, D forms with d. No end group written: not given here.

Legend:
[1] = tested on: rat red blood cells; conditions: cited from earlier work
[2] = tested on: MRSA; conditions: clinically isolated MRSA; cited from earlier work
[3] = tested on: P. aeruginosa; conditions: clinically isolated multidrug-resistant P. aeruginosa; cited from earlier work
[4] = tested on: C. neoformans; conditions: clinically isolated yeast C. neoformans; cited from earlier work
[5] = antimicrobial peptide alone; cited from earlier work
[6] = tested on: A. baumannii; conditions: clinically isolated multidrug-resistant A. baumannii; cited from earlier work
[7] = tested on: VRE; conditions: clinically isolated VRE; cited from earlier work
[8] = keratitis mouse model; cited from earlier work
[9] = In vitro cytotoxicity, MTT assay; type: cell-based, human; conditions: human
Description: 1000 μL of HDFs or keratinocytes (10^5 cells per mL) were seeded onto the 12-well Transwell plates (Corning). IIK12 (1%) with various contents of antimicrobial peptides were dissolved in water and incubated at 37° C. overnight and 100 μL of gels were then transferred to the inserts of the Transwell plate. 1 mL of fresh medium was added into the inserts. The plates were incubated for 24 h before proceeding to MTT assay. It is noted that cells without any treatment and Mupirocin (GSK) were used as controls. The data were expressed as mean and standard deviation of three replicates and the tests were repeated 3 times.

[10] = Gelation by vial tilting method; type: physicochemical; conditions: for Concentration to form the gel: in the presence of a salt; for Minimum concentration to form the gel: without the presence of a salt
Description: The peptide powder was dissolved in water or other aqueous solutions at the required concentrations. Alternatively, the required salt may be added after the peptide aqueous solution is prepared. The hydrogel was formed by mixing the peptide aqueous solution and salt (if required). For example, the solution was vortexed and then incubated to form hydrogel. The hydrogel formed may be stored as formed, or may be dried, for example by freeze drying. Alternatively, the hydrogel may be formed as required. The gelation time was determined by the vial tilting method. […] Rheology experiments were performed at room temperature using a control-strain rheometer (ARES G2, TA instruments). The rheometer is equipped with two sensitive force transducers for torque ranging from 0.05 μN·m to 200 mN·m. The peptide powder was dissolved in water at concentrations ranging from 1.0 to 2.0 (w/v) %. The solution was vortexed and then incubated to form hydrogel. The gel was placed onto parallel-plate geometry (8 mm in diameter). The dynamic storage modulus (G′) and loss modulus (G″) were examined as a function of frequency from 1 to 100 rad/s. The measurements were carried out at a strain amplitude (y) to ensure the linearity of viscoelasticity. Flow sweep (viscosity changes as a function of shear rate) was also performed to study shear thinning properties of hydrogels.

[11] = Rheology, G′ and G″ at frequency of 1 Hz; type: physicochemical
Description: The gelation time was determined by the vial tilting method. […] Rheology experiments were performed at room temperature using a control-strain rheometer (ARES G2, TA instruments). The rheometer is equipped with two sensitive force transducers for torque ranging from 0.05 μN·m to 200 mN·m. […] The solution was vortexed and then incubated to form hydrogel. The gel was placed onto parallel-plate geometry (8 mm in diameter). The dynamic storage modulus (G′) and loss modulus (G″) were examined as a function of frequency from 1 to 100 rad/s. The measurements were carried out at a strain amplitude (y) to ensure the linearity of viscoelasticity. Flow sweep (viscosity changes as a function of shear rate) was also performed to study shear thinning properties of hydrogels.

[12] = Stability of peptide hydrogels in PBS
[13] = CD spectra of peptide amphiphiles; type: physicochemical; conditions: 1.0 mg/mL, with addition of salt (PBS pH 7.4), room temperature
Description: CD measurements were performed with a Jasco Model J-810 spectropolarimeter (Jasco, Great Dunmow, Essex, UK) using a quartz cuvette with 1 mm pathlength (Hellma, Germany). Spectra were recorded (average of 3 scans) from 240 to 190 nm at a scan speed of 50 nm/min. The ellipticity was derived from the formula: [θ]λ=(M/(N−1)×θλ)/(d×c), where θλ represents observed ellipticity (degrees) at wavelength λ, d represents pathlength (cm), c represents the concentration (g/mL), and [θ]λ represents residue ellipticity (deg cm^2 dmol^−1). Thermal scans were measured with Jasco Model J-810 spectropolarimeter equipped with a peltier temperature controller. The solution was allowed to reach equilibrium for 10 min at room temperature prior to testing.

[14] = tested on: hMSCs; test: Live/Dead staining of hMSCs on or in peptide hydrogel (confocal); type: cell-based, human
Description: hMSCs were cultured in MSCGM medium (Lonza, U.S.A.) and incubated at 37° C., 5% CO2. The medium was changed every three days. The cells were harvested with PBS containing 0.025 (w/v) % trypsin and 0.01% EDTA, centrifuged and sub-cultured to passage 4 in MSCGM for 2D culture on the surface of hydrogels or 3D hydrogel encapsulation as described below.
The morphology and viability of hMSCs on the surface of hydrogels and inside 3D peptide hydrogel environment was observed by an inverted confocal laser scanning microscope (CLSM) (CLSM, Carl Zeiss, Germany). Live/Dead cell staining assay (Invitrogen) was used. Briefly, cells cultured on the surfaces of hydrogels in chambered cover glass (NUNC, Denmark) were washed with PBS and incubated in 0.5 mL of PBS containing dyes for 10 min, then visualized by CLSM at excitation wavelengths of 488 nm and 532 nm. All the observations were conducted under the same conditions. For the cells grown in 3D hydrogels, the constructs were cut, followed by the addition of staining agent. The gels were transferred to cover glass and then visualized by CLSM using the same method as described for the cells on the hydrogel surface.

[15] = 1.5 wt %, gelation temp. 37 °C, DMEM
[16] = 1.5 wt %, gelation temp. 37 °C, H2O
[17] = 1.5 wt %, gelation temp. R.T., H2O
[18] = 2.0 wt %, gelation temp. 37 °C, H2O

## IK8D: D-enantiomer of antimicrobial peptide IRIKIRIK ([dI][dR][dI][dK][dI][dR][dI][dK])
[1]
  HC10 value (the lowest concentration that induced 10% or more hemolysis): 1750 µg/mL
[2]
  MIC: 3.9 µg/mL
[3]
  MIC: 15.6 µg/mL
[4]
  MIC: 7.8 µg/mL
[5]
  Peptide concentration at which a hydrogel forms: 8 w/v %
[6]
  MIC: 31.3 µg/mL
[7]
  MIC: 3.9 µg/mL

## IRIKIRIK-NH2 [IK8L, IRIKIRIK]
[1]
  HC10 value (the lowest concentration that induced 10% or more hemolysis): 2000 µg/mL
[8]
  Toxicity to the eyes: without causing significant toxicity to the eyes
[9]; human dermal fibroblasts (HDFs) in 12-well Transwell plates
  viability at 24 h, 1000 µg/mL: 22%
[9]; human primary keratinocytes in 12-well Transwell plates
  viability at 24 h, 125 µg/mL: > 70%

## IRVE (IRVE-NH2)
[10]; peptide conc. 10 %
  Gelation in DI water at R.T. (via tilting): No

## IRVEIRVEIRVE (IRVEIRVEIRVE-NH2) [IRV12]
[10]; peptide conc. 0.5 %
  Gelation in DI water at R.T. (via tilting): No
[10]; peptide conc. 1.0, 2.0 %
  Gel appearance, gelation in DI water at 37° C.: cloudy
  Gelation in DI water at 37° C. (via tilting): Gel,

## IRVEIKVE (IRVEIKVE-NH2) [IRE8]
[10]; peptide conc. 1.0 %
  Gelation in DI water at R.T. (via tilting): No
[10]; peptide conc. 2.0 %
  Gel appearance, gelation in DI water at R.T.: clear
  Gelation in DI water at 37° C. (via tilting), time: 1400 min
  Gelation in DI water at R.T. (via tilting), time: 4300 min
[10]; peptide conc. 2.0 %, listed as IRVEIKVE
  Gelation in DI water at R.T. (via tilting), time: 3 days,

## IRVEIK (IRVEIK-NH2)
[10]; peptide conc. 1.0 %
  Gelation in DI water at R.T. (via tilting): No
[10]; peptide conc. 2.0 %
  Gelation in DI water at R.T. (via tilting): No

## IRVEIEVK (IRVEIEVK-NH2) [IRK8]
[10]; concentrations up to 2%
  Gel formation: no gel formation
[10]; peptide conc. 1.0 %
  Gelation in DI water at R.T. (via tilting): No
[10]; peptide conc. 2.0 %
  Gelation in DI water at R.T. (via tilting): No

## IEVEIEVKIRVK (IEVEIEVKIRVK-NH2) [IEV12]
[10]; peptide conc. 0.5 %
  Gelation in DI water at R.T. (via tilting): No
[10]; peptide conc. 1.0, 2.0 %
  Gelation in DI water at 37° C. (via tilting): Gel

## IEIEIRIK (IEIEIRIK-NH2) [IIK8]
[11]; [15]
  G′ (storage modulus): 1206 Pa
  G″ (loss modulus): 172 Pa
[11]; [16]
  G′ (storage modulus): 707 Pa
  G″ (loss modulus): 32 Pa
[11]; [17]
  G′ (storage modulus): 125 Pa
  G″ (loss modulus): 22 Pa
[11]; [18]
  G′ (storage modulus): 1139 Pa
  G″ (loss modulus): 90 Pa
[10]
  Concentration to form the gel: 0.6 % w/v
  Minimum concentration to form the gel: 1.0 % w/v
[10]; peptide conc. 1.0 %
  Gel appearance, gelation in DI water at R.T.: clear
  Gelation in DI water at 37° C. (via tilting): overnight
  Gelation in DI water at R.T. (via tilting), time: 1 day, days
[10]; peptide conc. 1.5 %
  Gelation in DI water at 37° C. (via tilting), time: ≤ 15 min
  Gelation in DI water at R.T. (via tilting), time: 30 min
[10]; peptide conc. 1.5 %, listed as IEIEIRIK
  Gelation in DI water at 37° C. (via tilting), time: 20 min
[10]; peptide conc. 2.0 %
  Gelation in DI water at 37° C. (via tilting), time: 20 min
  Gelation in DI water at R.T. (via tilting), time: 30 min
[12]; peptide conc. 1.0 %
  Stability in PBS: Yes
[12]; peptide conc. 1.5 %
  Stability in PBS: Yes
[12]; peptide conc. 2.0 %
  Stability in PBS: Yes
[13]
  Molecular ellipticity (θM) at the minimum point: −28.9 deg.cm^2dmol^−1

## IELEIRLK (IELEIRLK-NH2) [ILK8]
[11]; [17]
  G′ (storage modulus): 332 Pa
  G″ (loss modulus): 40 Pa
[10]
  Concentration to form the gel: 0.6 % w/v
  Minimum concentration to form the gel: 1.0 % w/v
[10]; peptide conc. 1.0 %
  Gelation in DI water at 37° C. (via tilting): overnight
  Gelation in DI water at R.T. (via tilting), time: 1 day days
[10]; peptide conc. 1.5 %
  Gelation in DI water at 37° C. (via tilting), time: 15 min
  Gelation in DI water at R.T. (via tilting), time: 30 min
[10]; peptide conc. 2.0 %
  Gelation in DI water at 37° C. (via tilting), time: 10 min
  Gelation in DI water at R.T. (via tilting), time: 20 min
[12]; peptide conc. 1.0 %
  Stability in PBS: Yes
[12]; peptide conc. 1.5 %
  Stability in PBS: Yes
[12]; peptide conc. 2.0 %
  Stability in PBS: Yes
[13]
  Molecular ellipticity (θM) at the minimum point: −21.4 deg.cm^2dmol^−1

## IRVKIEVEIRVK (IRVKIEVEIRVK-NH2) [IVK12]
[10]; aqueous solution
  Lowest concentration at which hydrogels self-assembled: 0.6 (w/v) %
[10]; peptide conc. 0.6, 1.0 %
  Gelation in DI water at 37° C. (via tilting): Gel

## IEVEIRVK-NH2 [IVK8, IEVEIRVK]
[14]; 1 day after encapsulation
  Viability of encapsulated cells: the majority of encapsulated hMSCs remained viable
[14]; after 24 h attachment
  Viability of cells on the surface of peptide hydrogel: the majority of the cells remained viable
